{
  "source": "patent US20110250203A1",
  "about": "(SYMPHOGEN A S, published 2011)",
  "target": "T1, Recombinant human CD5 extracellular domain (CD5-ECD) (human, UniProt P06127 25-372)",
  "T1 construct": "In-house protein made as CD5-ECD - TEV site - hGH fusion; CD5-ECD isolated by TEV cleavage and nickel column; also called CD5-ECD protein",
  "T1 sequence": "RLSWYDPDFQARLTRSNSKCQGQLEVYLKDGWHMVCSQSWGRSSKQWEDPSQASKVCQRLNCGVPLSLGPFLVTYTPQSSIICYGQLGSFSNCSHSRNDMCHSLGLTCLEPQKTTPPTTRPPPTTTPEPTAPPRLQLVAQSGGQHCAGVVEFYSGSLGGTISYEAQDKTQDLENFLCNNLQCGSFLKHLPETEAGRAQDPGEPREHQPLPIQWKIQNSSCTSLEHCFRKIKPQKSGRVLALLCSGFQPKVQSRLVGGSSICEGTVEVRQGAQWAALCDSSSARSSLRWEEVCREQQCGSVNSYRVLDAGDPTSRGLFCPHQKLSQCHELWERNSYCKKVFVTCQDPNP",
  "experiment": "SPR (Biacore 2000), antibody captured by anti-human Fc, CD5-ECD in solution, 1:1 fit;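 also: CM5 chip, binding curves at four CD5-ECD concentrations fitted globally, with the signal of a non-CD5-binding control antibody subtracted as reference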",
  "procedure": "SPR analysis was performed on a Biacore 2000 machine containing four flow cells. A CM5 Biacore chip was conjugated with 8.000 Resonance units (Ru) polyclonal anti-human IgG Fc-specific antibody to flow cells 1-4 according to the manufacturer's instructions. Each anti-CD5 antibody was determined for binding to four different concentrations of CD5-ECD (concentrations for the four cycles are shown below) before the affinity was calculated. The non-CD5 binding antibody, Erbitux served as a negative control and was subtracted from the values obtained with the anti-CD5 specific antibodies. […] Subsequently, all flow cells were washed and after waiting 500 s, 250 μl of CD5-ECD 100 nM or 200 nM (Cycle 1) was injected in Flow cells 1-4. After waiting 1000 s, 30 μl H3PO4 was injected using a flow rate of 60 μl/min. The antibody/antigen complex was then stripped with a low pH acid wash (30 sec. contact time with 100 mM H3PO4). […] Four new cycles were then repeated until all the anti-CD5 antibody clones were tested for binding to CD5 in four different concentrations. The association rate constant (ka) and dissociation constant (kd) were evaluated globally by fitting the four binding curves to predefined 1:1 (Langmuir) association and dissociation models with BIAevaluation 4.1 software (Biacore), Table 13.",
  "data": [
    {"binder": "Anti-CD5 antibody 8 (8G8) (antibody, human IgG1, V domains shown, also called Ab8; Clone 8) VH: QVQLKESGPELEKPGASVRISCKASGYSFTAYNINWVTQRDGKSLEWIGSIDPYYGDTKYNQKFKDKATLTVDKSSSTAHMQVKSLTSEDSAIYYCARRMITMGDWYFDV VL: EIVLTQSPSSLSASLGDRVTISCRASQDISNYLNWYQRKPDGTVKLLIYYTSRLQSGVPSRFSGSGSGSEYSLTISNLDQEDIATYFCQQGDALPWT", "values": [
      {"measurement": "Kd", "result": 0.37, "unit": "nM"},
      {"measurement": "koff", "result": "9.81e-06", "unit": "s⁻¹"},
      {"measurement": "kon", "result": 26500, "unit": "M⁻¹ s⁻¹"}
    ]},
    {"binder": "Anti-CD5 antibody 31 (3P16) (antibody, human IgG1, V domains shown, also called Ab31; Clone 31) VH: EVQLKESGPELKKPGETVKISCMTSGYMFTNHGMNWVKQAPGKGLKWMGWINTYTGEPTYGDGFKGRFVFSLETSASTAYLQINNLKNEDTATYFCARRVATYFDV VL: NIVLTQSPAILSVSPGERVSFSCRASQRIGTSMNWYQQRTNGSPRLLIKSASESISGIPSRFSGSGSGTDFTLSINSVESDDVADYYCQQSNSWPLT", "values": [
      {"measurement": "Kd", "result": 8.85, "unit": "nM"},
      {"measurement": "koff", "result": 0.000803, "unit": "s⁻¹"},
      {"measurement": "kon", "result": 90700, "unit": "M⁻¹ s⁻¹"}
    ]},
    {"binder": "Anti-CD5 antibody 32 (4F3) (antibody, human IgG1, V domains shown, also called Ab32; Clone 32) VH: EVKLVESGPELKKPGETVKISCKASGYMFTNYGMNWVKQAPGKGLKWMGWINTYTGEPTYVEDFKGRFAFSLETSANTAYLQINNLKNEDTATYFCTRRSHITLDY VL: DIVLTQSPVILSVSPGERVSLSCRASQSIGTSINWYQQRTDGSPRLLIKSASESMSGIPSRFSGSGSGTDFTLSITSVESEDIADYYCQQSNSWPLT", "values": [
      {"measurement": "Kd", "result": 0.903, "unit": "nM"},
      {"measurement": "koff", "result": 0.000116, "unit": "s⁻¹"},
      {"measurement": "kon", "result": 128000, "unit": "M⁻¹ s⁻¹"}
    ]},
    {"binder": "Anti-CD5 antibody 18 (1E7) (antibody, human IgG1, V domains shown, also called Ab18; Clone 18) VH: QVQLKESGGGLVQPGGSLKLSCAASGFTFSNYGMSWVRQIPDKRLELVAAINSNGDITYDPDSVKGRFTISRDNANNSLFLQMRSLKSEDTAMYYCARGTAWFTYWGQGTLVT VL: DIVLTQSPASLSASVGETVIITCRASENIYSYLVWYQQKQGKSPQLLVYNAKTLAEGVPSRFSGSGSGTQFSLKINSLQSEDFGSYSCQHHYGYPYT", "values": [
      {"measurement": "Kd", "result": 0.205, "unit": "nM"},
      {"measurement": "koff", "result": "3.27e-05", "unit": "s⁻¹"},
      {"measurement": "kon", "result": 160000, "unit": "M⁻¹ s⁻¹"}
    ]},
    {"binder": "Anti-CD5 antibody 23 (2H11) (antibody, V domains shown, also called Ab23; Clone 23) VH: EVQLQQSGPELVKPGTSVKISCKASGYTFTDYYINWVKQKPGQGLEWIGWIYPGGGNTRYIERFKGKATLTVDTSSSTAYMQLSSLTSEDTAVYFCARNGYWYFDV VL: DIVLTQSPSSLTVTAGEKVTMSCKSSQSLLNQKNYLTWYQQKTGQPPKLLIYWASTRESGVPDRFTGSGSGTDFTLTISSVQAEDLAVYYCQNDYDYPYT", "values": [
      {"measurement": "Kd", "result": 4.79, "unit": "nM"},
      {"measurement": "koff", "result": 0.000105, "unit": "s⁻¹"},
      {"measurement": "kon", "result": 21900, "unit": "M⁻¹ s⁻¹"}
    ]},
    {"binder": "Anti-CD5 antibody 34 (5O24) (antibody, human IgG1, V domains shown, also called Ab34; Clone 34) VH: EVKLVESGAELVRSGASVKLSCAASGFNIKDYYIHWVKQRPEQGLEWIGWIDPENGRTEYAPKFQGKATMTADTSSNTAYLQLSSLTSEDTAVYYCNNGNYVRHYYFDY VL: DVVLTQSPAILSASPGEKVTMTCRAISSVSYMHWYQQKPGSSPKPWIYATSNLASGVPARFSGSGSGTSYSLTISRVEAEDAATYYCQQWSSNPRT", "values": [
      {"measurement": "Kd", "result": 61.3, "unit": "nM"},
      {"measurement": "koff", "result": 0.00084, "unit": "s⁻¹"},
      {"measurement": "kon", "result": 13700, "unit": "M⁻¹ s⁻¹"}
    ]},
    {"binder": "Anti-CD5 antibody 1 (1D8) (antibody, human IgG1, V domains shown, also called Ab1; Clone 1) VH: EVQLQESGPELVKPEASVKISCKASGYSFTGYTMNWVKQSHGKNLEWIGLINPYNGGTTYNQKFKGKATLTVDTSSSTAFMELLSLTSEDSAVYYCARDYYGSSPDFDY VL: DIVLTQSTSSLSASLGDRVTINCSASQGISNHLNWFQQKSDGTVKLLIYFTSSLHSGVPSRFSGSGSGTDYSLTISNLEPEDIAAYYCQQYSNLPYT", "values": [
      {"measurement": "Kd", "result": 5.19, "unit": "nM"},
      {"measurement": "koff", "result": 0.000557, "unit": "s⁻¹"},
      {"measurement": "kon", "result": 107000, "unit": "M⁻¹ s⁻¹"}
    ]},
    {"binder": "Anti-CD5 antibody 15 (8E24) (antibody, human IgG1, V domains shown, also called Ab15; Clone 15) VH: QVTLKESGAELVRPGASVKLSCKASGYSFTSYWMNWVKQRPGQGLEWIGMIHPSDSETRLNQKFKDKATLTVDKSSSTAYMQLSSPTSEDSAVYYCARWGDHDDAMDF VL: DIVLTQSPASLSASVGESVTITCRPSENIYGYFAWYQQRQGKSPQLLVYNAKTLAEGVPSRFSGSGSGTHFSLKINSLQPEDFGTYYCQHHYGTPFT", "values": [
      {"measurement": "Kd", "result": 23.4, "unit": "nM"},
      {"measurement": "koff", "result": 0.00127, "unit": "s⁻¹"},
      {"measurement": "kon", "result": 54400, "unit": "M⁻¹ s⁻¹"}
    ]},
    {"binder": "Anti-CD5 antibody 11 (4E24) (antibody, human IgG1, V domains shown, also called Ab11; Clone 11) VH: EVQLKESGAELVRPGGSVKISCKGSGYTFTNFAIHWVKQSHIKTLEWIGLISTSSGDVSYNQKFKDKATMTVDKSSSTAYMELARLTSEDSAIYYCARHYGANNYFDY VL: EIVLTQSPTIMSASPGEQVTMTCRTNSSVSSSYLHWYQQKSGASPKLWIYGTSNLASGVPTRFSGSGSGTSYSLTISSVEAGDAATYFCQQYSGYPLT", "values": [
      {"measurement": "Kd", "result": 0.315, "unit": "nM"},
      {"measurement": "koff", "result": "2.2e-05", "unit": "s⁻¹"},
      {"measurement": "kon", "result": 69900, "unit": "M⁻¹ s⁻¹"}
    ]},
    {"binder": "Anti-CD5 antibody 12 (4F10) (antibody, human IgG1, V domains shown, also called Ab12; Clone 12) VH: EVQLQESGAELVRPGVSVKISCKGSGYTFTNFAIHWVKQSHAKSLEWIGLISSNSGDVSYNQKFKGKATMTVDKSSSTAYMELARLTSEDSAIYYCARHYGAHNYFDY VL: DIVLTQSPAIMSASPGEQVTMTCRATSSISSSYLHWYQQKSGASPKLWIYGTSNLASGVPTRFSGSGSGTSYSLTISSVEAEDAATYYCQQYSDYPLT", "values": [
      {"measurement": "Kd", "result": 1.18, "unit": "nM"},
      {"measurement": "koff", "result": 0.000115, "unit": "s⁻¹"},
      {"measurement": "kon", "result": 97000, "unit": "M⁻¹ s⁻¹"}
    ]},
    {"binder": "Anti-CD5 antibody 14 (7P9) (antibody, human IgG1, V domains shown, also called Ab14; Clone 14) VH: EVQLKESGAELVKPGASVKLSCTASGFNIKDTYMHWVKQRPEQGLEWIGRIDPANGNTKYDPKFQGKATITADTSSNTAYLQLSSLTSEDTAVYYCAREENYYGTYYFDY VL: NIVLTQSPASLAASVGETVTITCRASENIYYNLAWYQQKQGKSPQLLIYNANSLEDGVPSRFSGSGSGTQYSMKINSMQPEDTATYFCKQVYDVPFT", "values": [
      {"measurement": "Kd", "result": 5.6, "unit": "nM"},
      {"measurement": "koff", "result": 0.0018, "unit": "s⁻¹"},
      {"measurement": "kon", "result": 321000, "unit": "M⁻¹ s⁻¹"}
    ]},
    {"binder": "Anti-CD5 antibody 29 (8E15) (antibody, human IgG1, V domains shown, also called Ab29; Clone 29) VH: QVQLKESGADLVKPGASVKLSCTASGFNIKDTYMNWVKERPEQGLEWIGRIDPANGNTKYDPKFQGKATITADTSSNTGYLQLSSLTSEDTAVYYCASYDPDY VL: DIVLTQSPASLAASVGETVTITCRASENIYYNLAWYQQKQGKSPQLLIYNANSLEGGVPSRFSGSGSGTQYSMKINSMQPEDTATYFCKQAYDVPWT", "values": [
      {"measurement": "Kd", "result": 2.09, "unit": "nM"},
      {"measurement": "koff", "result": 0.00137, "unit": "s⁻¹"},
      {"measurement": "kon", "result": 655000, "unit": "M⁻¹ s⁻¹"}
    ]},
    {"binder": "Anti-CD5 antibody 9 (6M4) (antibody, human IgG1, V domains shown, also called Ab9; Clone 9) VH: QVQLKESGPELEKPGASVKISCKASGYSFTAYSMNWVKQNNGMSLEWIGSIDPYYGDTKYAQKFKGKATLTVDKASSTAYLQLKSLTSEDSAVYYCARRMITTGDWYFDV VL: HIVLTQSPSSLSASLGDRVTISCRASQDISTYLNWYQQKPDGTVKLLIFYTSRLHAGVPSRFSGSGSGTHHSLTISNLEQEDIATYFCQQGNSLPFT", "values": [
      {"measurement": "Kd", "result": 4.35, "unit": "nM"},
      {"measurement": "koff", "result": "6.17e-05", "unit": "s⁻¹"},
      {"measurement": "kon", "result": 14200, "unit": "M⁻¹ s⁻¹"}
    ]},
    {"binder": "Anti-CD5 antibody 17 (7H7) (antibody, human IgG1, V domains shown, also called Ab17; Clone 17) VH: EVQLVESGPGLVQPSQSLSITCTVSGFSLTNYDVHWVRQSPGKGLEWLGVIWNYGNTDYNAAFISRLSIRKDSSKSQVFFTMSSLQTPDTAIYYCARNHGDGYYNWYFDV VL: NIVLTQSPSSLSESLGGKVTITCKASQDINKYIAWYQYKPGKGPRLLIHYTSTLQPGIPSRFSGSGSGRDYSFSISNLEPEDIATYYCLQYDNLWT", "values": [
      {"measurement": "Kd", "result": 0.164, "unit": "nM"},
      {"measurement": "koff", "result": "8.45e-05", "unit": "s⁻¹"},
      {"measurement": "kon", "result": 515000, "unit": "M⁻¹ s⁻¹"}
    ]}
  ]
}
